Source: patent publication US20150258180A1 (UNIVERSITY OF MANITOBA, published 2015)
Each block holds one binder with its values, some of them ahead of it.

Tests used:
[1] = molecular target: T1, human GM2 activator protein (GM2AP), recombinant, P17900
T1 chain: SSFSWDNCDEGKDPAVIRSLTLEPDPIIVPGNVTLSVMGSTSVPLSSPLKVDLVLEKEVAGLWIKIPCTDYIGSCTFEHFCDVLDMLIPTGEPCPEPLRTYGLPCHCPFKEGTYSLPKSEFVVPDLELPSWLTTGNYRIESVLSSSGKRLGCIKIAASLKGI

[2] = molecular target: plasma membrane mannose-6-phosphate receptor of human Tay-Sachs fibroblasts (human, UniProt P11717 41-2491); assay: cell-based or functional assay
Chain of plasma membrane mannose-6-phosphate receptor of human Tay-Sachs fibroblasts (P11717 41-2491): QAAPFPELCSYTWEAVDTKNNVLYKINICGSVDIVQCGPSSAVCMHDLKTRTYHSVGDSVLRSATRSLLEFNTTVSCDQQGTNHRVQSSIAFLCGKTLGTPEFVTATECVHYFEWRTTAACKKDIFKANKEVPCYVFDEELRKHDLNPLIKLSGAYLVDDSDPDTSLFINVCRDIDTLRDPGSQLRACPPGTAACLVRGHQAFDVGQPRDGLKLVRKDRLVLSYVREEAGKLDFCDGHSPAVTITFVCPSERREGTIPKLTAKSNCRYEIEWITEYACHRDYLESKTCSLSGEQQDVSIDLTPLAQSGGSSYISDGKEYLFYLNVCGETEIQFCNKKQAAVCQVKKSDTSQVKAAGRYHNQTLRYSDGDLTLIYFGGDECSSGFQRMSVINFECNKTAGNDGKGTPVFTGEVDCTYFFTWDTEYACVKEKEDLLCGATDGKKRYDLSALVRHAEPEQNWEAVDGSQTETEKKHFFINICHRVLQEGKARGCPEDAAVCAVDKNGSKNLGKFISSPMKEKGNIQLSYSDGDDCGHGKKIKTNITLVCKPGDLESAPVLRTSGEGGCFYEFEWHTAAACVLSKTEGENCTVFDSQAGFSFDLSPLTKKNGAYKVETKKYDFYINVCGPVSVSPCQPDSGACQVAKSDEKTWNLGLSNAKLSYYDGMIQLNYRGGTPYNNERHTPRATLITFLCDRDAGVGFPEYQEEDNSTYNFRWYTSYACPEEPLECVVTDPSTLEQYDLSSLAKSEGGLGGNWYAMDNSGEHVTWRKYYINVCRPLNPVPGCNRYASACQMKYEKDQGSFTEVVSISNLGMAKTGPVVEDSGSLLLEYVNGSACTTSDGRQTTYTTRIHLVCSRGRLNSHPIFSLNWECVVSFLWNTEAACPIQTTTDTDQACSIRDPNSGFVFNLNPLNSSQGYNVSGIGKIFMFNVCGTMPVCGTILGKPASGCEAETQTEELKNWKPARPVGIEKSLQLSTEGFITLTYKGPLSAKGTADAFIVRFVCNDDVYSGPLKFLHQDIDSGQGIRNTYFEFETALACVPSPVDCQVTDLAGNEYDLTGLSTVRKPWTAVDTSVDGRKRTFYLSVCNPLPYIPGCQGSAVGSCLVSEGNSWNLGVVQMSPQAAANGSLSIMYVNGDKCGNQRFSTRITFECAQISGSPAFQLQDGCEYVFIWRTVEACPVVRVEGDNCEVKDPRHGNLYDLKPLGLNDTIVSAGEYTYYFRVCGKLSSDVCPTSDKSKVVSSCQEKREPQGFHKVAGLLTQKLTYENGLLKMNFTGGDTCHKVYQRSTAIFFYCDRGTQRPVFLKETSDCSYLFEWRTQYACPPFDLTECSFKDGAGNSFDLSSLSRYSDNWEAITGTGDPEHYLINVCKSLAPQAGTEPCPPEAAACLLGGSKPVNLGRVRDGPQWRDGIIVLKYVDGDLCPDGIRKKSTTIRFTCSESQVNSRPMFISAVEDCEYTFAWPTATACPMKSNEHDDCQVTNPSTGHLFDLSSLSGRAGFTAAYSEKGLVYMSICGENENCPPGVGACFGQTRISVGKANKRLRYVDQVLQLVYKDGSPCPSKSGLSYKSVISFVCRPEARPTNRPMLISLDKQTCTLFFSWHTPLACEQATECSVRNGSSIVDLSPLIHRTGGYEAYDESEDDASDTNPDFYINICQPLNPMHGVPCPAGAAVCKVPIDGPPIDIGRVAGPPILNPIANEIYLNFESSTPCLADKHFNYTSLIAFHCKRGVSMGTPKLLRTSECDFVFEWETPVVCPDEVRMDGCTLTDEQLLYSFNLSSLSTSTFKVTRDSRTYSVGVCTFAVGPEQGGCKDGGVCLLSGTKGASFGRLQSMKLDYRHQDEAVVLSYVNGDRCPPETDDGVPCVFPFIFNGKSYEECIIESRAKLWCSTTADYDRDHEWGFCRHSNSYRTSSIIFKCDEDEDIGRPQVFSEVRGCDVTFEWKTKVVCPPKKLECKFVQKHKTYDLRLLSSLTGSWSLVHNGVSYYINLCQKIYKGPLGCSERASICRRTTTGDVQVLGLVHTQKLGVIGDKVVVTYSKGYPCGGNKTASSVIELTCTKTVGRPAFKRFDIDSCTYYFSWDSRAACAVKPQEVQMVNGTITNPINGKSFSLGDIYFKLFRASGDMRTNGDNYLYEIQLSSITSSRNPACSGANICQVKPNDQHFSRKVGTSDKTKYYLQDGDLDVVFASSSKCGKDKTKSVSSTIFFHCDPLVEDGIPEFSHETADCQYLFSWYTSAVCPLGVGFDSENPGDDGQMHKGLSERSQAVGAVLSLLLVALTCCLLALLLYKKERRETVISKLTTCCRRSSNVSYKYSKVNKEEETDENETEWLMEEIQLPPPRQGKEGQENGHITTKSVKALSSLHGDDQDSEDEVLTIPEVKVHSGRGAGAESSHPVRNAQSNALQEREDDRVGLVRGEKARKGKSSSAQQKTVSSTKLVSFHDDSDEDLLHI

B1: Hex A (β-hexosaminidase A), purified from human placenta (protein)
chain 1: LWPWPQNFQTSDQRYVLYPNNFQFQYDVSSAAQPGCSVLDEAFQRYRDLLFGSGSWPRPYLTGKRHTLEKNVLVVSVVTPGCNQLPTLESVENYTLTINDDQCLLLSETVWGALRGLETFSQLVWKSAEGTFFINKTEIEDFPRFPHRGLLLDTSRHYLPLSSILDTLDVMAYNKLNVFHWHLVDDPSFPYESFTFPELMRKGSYNPVTHIYTAQDVKEVIEYARLRGIRVLAEFDTPGHTLSWGPGIPGLLTPCYSGSEPSGTFGPVNPSLNNTYEFMSTFFLEVSSVFPDFYLHLGGDEVDFTCWKSNPEIQDFMRKKGFGEDFKQLESFYIQTLLDIVSSYGKGYVVWQEVFDNKVKIQPDTIIQVWREDIPVNYMKELELVTKAGFRALLSAPWYLNRISYGPDWKDFYIVEPLAFEGTPEQKALVIGGEACMWGEYVDNTNLVPRLWPRAGAVAERLWSNKLTSDLTFAYERLSHFRCELLRRGVQAQPLNVGFCEQEFEQT
chain 2: TQVQQLLVSITLQSECDAFPNISSDESYTLLVKEPVAVLKANRVWGALRGLETFSQLVYQDSYGTFTINESTIIDSPRFSHRGILIDTSRHYLPVKIILKTLDAMAFNKFNVLHWHIVDDQSFPYQSITFPELSNKGSYSLSHVYTPNDVRMVIEYARLRGIRVLPEFDTPGHTLSWGKGQKDLLTPCYSRQNKLDSFGPINPTLNTTYSFLTTFFKEISEVFPDQFIHLGGDEVEFKCWESNPKIQDFMRQKGFGTDFKKLESFYIQKVLDIIATINKGSIVWQEVFDDKAKLAPGTIVEVWKDSAYPEELSRVTASGFPVILSAPWYLDLISYGQDWRKYYKVEPLDFGGTQKQKQLFIGGEACLWGEYVDATNLTPRLWPRASAVGERLWSSKDVRDMDDAYDRLTRHRCRMVERGIAAQPLYAGYCNHENM
detectable NBD-GM3 in the in vitro NBD-GM2 hydrolysis assay with human GM2AP [1]: Only the assay containing Hex A or the variant protein produced detectable levels of NBD-GM3

B2: Hex B (β-hexosaminidase B), purified from human placenta (protein)
chain: B1 chain 2
detectable NBD-GM3 in the in vitro NBD-GM2 hydrolysis assay with human GM2AP (none for Hex B, the negative control) [1]: Only the assay containing Hex A or the variant protein produced detectable levels of NBD-GM3

B3: mature variant α-subunit homodimer (500 mM NaCl DEAE fraction) (protein)
chain: LWPWPQNFQTSDQRYVLYPNNFQFQYDVSSAAQPGCSVLDEAFQRYRDLLFGSGSWPRPYLTGKRHTLEKNVLVVSVVTPGCNQLPTLESVENYTLTINDDQCLLLSETVWGALRGLETFSQLVWKSAEGTFFINKTEIEDFPRFPHRGLLLDTSRHYLPLKSILDTLDVMAYNKLNVFHWHLVDDQSFPYESFTFPELMRKGSYSLSHIYTAQDVKEVIEYARLRGIRVLAEFDTPGHTLSWGPGIPGLLTPCYSGSEPSGTFGPVNPSLNNTYEFMSTFFLEVSSVFPDFYLHLGGDEVDFTCWKSNPEIQDFMRKKGFGEDFKQLESFYIQTLLDIVSSYGKGYVVWQEVFDNKVKIQPDTIIQVWREDIPVNYMKELELVTKAGFRALLSAPWYLNRISYGQDWRKFYKVEPLAFEGTPEQKALVIGGEACMWGEYVDATNLVPRLWPRAGAVAERLWSNKLTRDMDDAYDRLSHFRCELVRRGVAAQPLYAGYCNQEFEQT
NBD-GM3 produced in the overnight in vitro NBD-GM2 hydrolysis assay (liposomes plus rGM2AP), against Hex A at the same number of MUG units [1]: the variant protein produces at least twice as much NBD-GM3 as Hex A
detectable NBD-GM3 in the in vitro NBD-GM2 hydrolysis assay with human GM2AP [1]: Only the assay containing Hex A or the variant protein produced detectable levels of NBD-GM3

fold increase in intracellular MUGS activity of untransfected TSD fibroblasts grown in conditioned media [2]: ~38 fold
fold increase in intracellular MUGS activity of untransfected TSD fibroblasts grown in conditioned media containing 5 mM mannose-6-phosphate [2]: ~10 fold
B4: secreted variant β-hexosaminidase protein in conditioned media (enzyme)
chain: B3 chain
modifications: mannose-6-phosphate on Asn-linked oligosaccharides
